For the experiment, the target named is T1, recombinant His-tagged PRMT5 (human, UniProt O14744-1 1-637).
T1 construct: Protein arginine methyltransferase 5 (PRMT5), full length, NM_006109.4; Cloned in pET28a; also called His-PRMT5; His-RMT5; source: bacterial expression, purified
The experiment can be described thus: pull-down; 50 ug GST or GST-FAM47E on glutathione sepharose 4B, blocked with 5% BSA; 25 ug His-PRMT5 in 10 mM Tris, 150 mM NaCl, 0.5 mM EDTA, 0.1% NP40, 3 h at 4°C; washed with 300 mM NaCl, 0.5% NP40; probed with His antibody. The note with it: both partners purified.

T1 sequence (O14744 whole entry): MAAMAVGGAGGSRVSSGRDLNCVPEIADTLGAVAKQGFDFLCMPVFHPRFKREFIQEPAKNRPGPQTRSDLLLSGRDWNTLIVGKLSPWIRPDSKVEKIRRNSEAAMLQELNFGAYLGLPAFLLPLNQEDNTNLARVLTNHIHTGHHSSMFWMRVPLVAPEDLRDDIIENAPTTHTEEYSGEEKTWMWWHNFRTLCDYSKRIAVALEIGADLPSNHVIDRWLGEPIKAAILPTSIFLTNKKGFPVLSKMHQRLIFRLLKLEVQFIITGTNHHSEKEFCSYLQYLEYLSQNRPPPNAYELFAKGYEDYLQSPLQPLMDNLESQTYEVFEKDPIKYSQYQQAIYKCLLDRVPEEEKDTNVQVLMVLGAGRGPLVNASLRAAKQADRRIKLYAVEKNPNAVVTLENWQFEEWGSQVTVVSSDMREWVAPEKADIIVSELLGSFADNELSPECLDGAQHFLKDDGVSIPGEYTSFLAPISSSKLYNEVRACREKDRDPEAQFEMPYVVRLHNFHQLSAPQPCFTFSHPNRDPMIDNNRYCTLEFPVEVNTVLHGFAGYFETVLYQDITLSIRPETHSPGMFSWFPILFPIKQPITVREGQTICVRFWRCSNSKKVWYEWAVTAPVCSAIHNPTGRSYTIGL

B1: recombinant GST-tagged FAM47E (natural protein, human, UniProt Q6ZV65-2 1-295, looked up)
chain: MQMSVPCVLSSLQNHEPNKPLFTTQSQLLSKVLEVLDPDRKLEDTWAYCQDTRKGMKEPTKLLKKHSTQVYLGPSKKTSVSNAGQWLYEEKPHKMDLLHENGPRPGLHENVCKAVSDFCKWVTTFGISDIDEEFILKQFDIDYETKPSHDALHTMKLNQVPLELKRSVGLSKLQETEFFQKLGYERKLQKPQNPYKPKWVKMRYGAWYLNPKLWKKQRVDEPLVDPEVSHKAQEENFKKELQEQEELLADLHGTVAFKDFILSRGYRTPRFLENMYIGKECKRACNKTPIKRTQA
notes: Cloned in pGEX-6P2; also called GST-FAM47E; pGEX-FAM47E; source: bacterial expression, purified
Regarding B1, the binding result is on record as “binds”.

These data come from PMC7772775, “The uncharacterized protein FAM47E interacts with PRMT5 and regulates its functions” (Life Science Alliance, 2020).
